Experimental data: paper PMC3814645 (Genes & Development, 2013)

Target: eIF4E (endogenous) (human (endogenous in HCT116), UniProt P06730 1-217)
Test: co-IP

Sequence of eIF4E (endogenous) (P06730 whole entry): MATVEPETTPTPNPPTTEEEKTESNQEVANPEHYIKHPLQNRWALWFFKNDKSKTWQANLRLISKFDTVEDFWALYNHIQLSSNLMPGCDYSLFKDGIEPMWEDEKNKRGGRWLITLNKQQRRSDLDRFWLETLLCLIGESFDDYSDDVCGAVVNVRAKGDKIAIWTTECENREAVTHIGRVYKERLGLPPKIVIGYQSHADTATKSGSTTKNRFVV

ratio of p-RNPC1 versus RNPC1 in anti-eIF4E immunocomplexes: 0.12
B1: p-RNPC1 (endogenous RNPC1 phosphorylated at Ser195) (natural protein, human (endogenous in HCT116 and RKO), UniProt Q9H0Z9 1-239, looked up)
chain: MLLQPAPCAPSAGFPRPLAAPGAMHGSQKDTTFTKIFVGGLPYHTTDASLRKYFEGFGDIEEAVVITDRQTGKSRGYGFVTMADRAAAERACKDPNPIIDGRKANVNLAYLGAKPRSLQTGFAIGVQQLHPTLIQRTYGLTPHYIYPPAIVQPSVVIPAAPVPSLSSPYIEYTPASPAYAQYPPATYDQYPYAASPATAASFVGYSYPAAVPQALSAAAPAGTTFVQYQAPQLQPDRMQ
modifications: phosphoserine at 195
